According to article PMC8878202, “Interdisciplinary Study of the Effects of Dipeptidyl-Peptidase III Cancer Mutations on the KEAP1-NRF2 Signaling Pathway” (International Journal of Molecular Sciences, 2022):
Positions count from the first letter of the chain named. Numbers in names are those of the source. Each block holds one binder with its values, some of them ahead of it.

Target: T1, Kelch domain of KEAP1 protein (UniProt Q14145 321-609, fluorescently labeled with RED-MALEIMIDE (Cysteine reactive) fluorescent dye)
T1 construct: Kelch domain of KEAP1 (Kelch-like ECH associated protein 1); plasmid pET15b with Kelch insert, gift of Mark Hannink; also called Kelch-like ECH associated protein 1 (Kelch domain); source: E. coli BL21-(DE3)-RIL+, purified (Ni-NTA agarose)
Assay: MST; Kelch domain labeled with RED-MALEIMIDE, 50 nM; DPP III or variant added; binding-induced fluorescence change on Monolith NT.115; 25 °C; 50 mM Tris, 100 mM NaCl, pH 8.2, 0.05% Tween; triplicate
Conditions: both partners purified

T1 sequence (Q14145 321-609): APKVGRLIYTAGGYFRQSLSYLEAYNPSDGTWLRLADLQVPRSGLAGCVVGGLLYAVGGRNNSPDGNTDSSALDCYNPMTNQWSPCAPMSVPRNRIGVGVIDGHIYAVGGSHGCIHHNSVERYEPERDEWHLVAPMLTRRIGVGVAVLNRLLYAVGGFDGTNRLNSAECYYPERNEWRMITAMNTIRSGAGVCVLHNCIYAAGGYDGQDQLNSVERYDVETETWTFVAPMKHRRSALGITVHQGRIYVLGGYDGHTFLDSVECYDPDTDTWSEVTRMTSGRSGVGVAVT

- Kd(WT)/Kd(mut): 1
B1: Dipeptidyl peptidase III, wild type (enzyme, human, UniProt Q9NY33 1-737, looked up)
chain: MADTQYILPNDIGVSSLDCREAFRLLSPTERLYAYHLSRAAWYGGLAVLLQTSPEAPYIYALLSRLFRAQDPDQLRQHALAEGLTEEEYQAFLVYAAGVYSNMGNYKSFGDTKFVPNLPKEKLERVILGSEAAQQHPEEVRGLWQTCGELMFSLEPRLRHLGLGKEGITTYFSGNCTMEDAKLAQDFLDSQNLSAYNTRLFKEVDGEGKPYYEVRLASVLGSEPSLDSEVTSKLKSYEFRGSPFQVTRGDYAPILQKVVEQLEKAKAYAANSHQGQMLAQYIESFTQGSIEAHKRGSRFWIQDKGPIVESYIGFIESYRDPFGSRGEFEGFVAVVNKAMSAKFERLVASAEQLLKELPWPPTFEKDKFLTPDFTSLDVLTFAGSGIPAGINIPNYDDLRQTEGFKNVSLGNVLAVAYATQREKLTFLEEDDKDLYILWKGPSFDVQVGLHELLGHGSGKLFVQDEKGAFNFDQETVINPETGEQIQSWYRSGETWDSKFSTIASSYEECRAESVGLYLCLHPQVLEIFGFEGADAEDVIYVNWLNMVRAGLLALEFYTPEAFNWRQAHMQARFVILRVLLEAGEGLVTITPTTGSDGRPDARVRLDRSKIRSVGKPALERFLRRLQVLKSTGDVAGGRALYEGYATVTDAPPECFLTLRDTVLLRKESRKLIVQPNTRLEGSDVQLLEYEASAAGLIRSFSERFPEDGPELEEILTQLATADARFWKGPSEAPSGQA
notes: Dipeptidyl peptidase III (DPP III, EC 3.4.14.4), human, wild type, cloned into pLATE31; also called DPP III; WT DPP III; source: E. coli BL21-(DE3)-RIL+, purified (Ni-NTA agarose)

- Kd(WT)/Kd(mut): 0.1
B2: DPP III E480Q variant (enzyme, human, UniProt Q9NY33 1-737, looked up)
chain: B1 chain with E480Q
notes: source: E. coli BL21-(DE3)-RIL+, purified (Ni-NTA agarose)

- Kd(WT)/Kd(mut): 2.1
B3: DPP III E451K variant (enzyme, human, UniProt Q9NY33 1-737, looked up)
chain: B1 chain with E451K
notes: as for B2

- Kd(WT)/Kd(mut): 1.7
B4: DPP III R703C variant (enzyme, human, UniProt Q9NY33 1-737, looked up)
chain: B1 chain with R703C
notes: as for B2

- Kd(WT)/Kd(mut): 0.3
B5: DPP III R510W variant (enzyme, human, UniProt Q9NY33 1-737, looked up)
chain: B1 chain with R510W
notes: as for B2

- Kd(WT)/Kd(mut): 0.8
B6: DPP III G482C variant (enzyme, human, UniProt Q9NY33 1-737, looked up)
chain: B1 chain with G482C
notes: as for B2

- Kd(WT)/Kd(mut): 0.1
B7: DPP III T481M variant (enzyme, human, UniProt Q9NY33 1-737, looked up)
chain: B1 chain with T481M
notes: as for B2

- Kd(WT)/Kd(mut): 2.1
B8: DPP III Q484H variant (enzyme, human, UniProt Q9NY33 1-737, looked up)
chain: B1 chain with Q484H
notes: as for B2

- Kd(WT)/Kd(mut): 18.4
B9: DPP III P479S variant (enzyme, human, UniProt Q9NY33 1-737, looked up)
chain: B1 chain with P479S
notes: as for B2

- Kd(WT)/Kd(mut): 2
B10: DPP III R638L variant (enzyme, human, UniProt Q9NY33 1-737, looked up)
chain: B1 chain with R638L
notes: as for B2

- Kd(WT)/Kd(mut): 2
B11: DPP III R638W variant (enzyme, human, UniProt Q9NY33 1-737, looked up)
chain: B1 chain with R638W
notes: as for B2
